In US20230312755A1:

Experiments:
[1] = biological target: human Sclerostin (human) (UniProt Q9BQB4); experiment: cell-based or functional assay
[2] = biological target: His-tagged human Sclerostin (NCBI reference No. NP_079513.1) (human) (UniProt Q9BQB4); experiment: ELISA, plate coated with His-tagged human Sclerostin
[3] = biological target: human Sclerostin (human) (UniProt Q9BQB4); experiment: BLI (Gator), antibody on anti-hFc biosensor, Sclerostin as analyte, 1:1 global fit

Chain of human Sclerostin (human) (Q9BQB4 24-213 limits assumed): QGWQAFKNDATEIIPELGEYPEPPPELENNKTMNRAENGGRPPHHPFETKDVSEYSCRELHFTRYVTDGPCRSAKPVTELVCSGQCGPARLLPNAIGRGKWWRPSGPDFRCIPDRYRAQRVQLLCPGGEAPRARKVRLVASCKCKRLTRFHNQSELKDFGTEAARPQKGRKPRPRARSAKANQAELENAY
Chain of His-tagged human Sclerostin (NCBI reference No. NP_079513.1) (human) (Q9BQB4 24-213 limits assumed): as above

- EC50, Sclerostin-neutralisation activity in HEK293/TCF/LEF/Wnt1 cells (luciferase reporter) [1]: 42300 pM
- EC50 [2]: 110 pM
- Kd [3]: 780 pM
- koff [3]: 0.00028 s⁻¹
- kon [3]: 360000 M⁻¹ s⁻¹
B1: Romosozumab (antibody, INN chains, looked up, V domains shown)
VH: EVQLVQSGAEVKKPGASVKVSCKASGYTFTDYNMHWVRQAPGQGLEWMGEINPNSGGAGYNQKFKGRVTMTTDTSTSTAYMELRSLRSDDTAVYYCARLGYDDIYDDWYFDVWGQGTTVTVSS
VL: DIQMTQSPSSLSASVGDRVTITCRASQDISNYLNWYQQKPGKAPKLLIYYTSRLLSGVPSRFSGSGSGTDFTLTISSLQPEDFATYYCQQGDTLPYTFGGGTKVEIK
